The supplement of paper PMC11246515
± gives the standard deviation of the averaged measurements.

Assay: total protein half-life in vivo (active degradation + dilution); higher = more stable protein
[1] = E. coli NCM3722 delta-clpP delta-lon delta-hslV, growth: N-lim chemostat, doubling time 6 h
[2] = E. coli NCM3722 delta-clpP, growth: N-lim chemostat, doubling time 6 h
[3] = E. coli NCM3722 delta-hslV, growth: N-lim chemostat, doubling time 6 h
[4] = E. coli NCM3722 delta-lon, growth: N-lim chemostat, doubling time 6 h
[5] = E. coli NCM3722 delta-smpB, growth: N-lim chemostat, doubling time 6 h
[6] = wild type E. coli NCM3722, growth: C-lim chemostat, doubling time 3 h
[7] = wild type E. coli NCM3722, growth: C-lim chemostat, doubling time 6 h
[8] = wild type E. coli NCM3722, growth: C-lim chemostat, doubling time 12 h
[9] = wild type E. coli NCM3722, growth: N-lim chemostat, doubling time 6 h
[10] = wild type E. coli NCM3722, growth: N-lim chemostat, doubling time 12 h
[11] = wild type E. coli NCM3722, growth: P-lim chemostat, doubling time 6 h
[12] = wild type E. coli NCM3722, growth: P-lim chemostat, doubling time 12 h

For “MQSLTTALENLLRHLSQEIPATPGIRVIDIPFPLKDAFDALSWLASQQTYPQFYWQQRNGDEEAVVLGAITRFTSLDQAQRFLRQHPEHADLRIWGLNAFDPSQGNLLLPRLEWRRCGGKATLRLTLFSESSLQHDAIQAKEFIATLVSIKPLPGLHLTTTREQHWPDKTGWTQLIELATKTIAEGELDKVVLARATDLHFASPVNAAAMMAASRRLNLNCYHFYMAFDGENAFLGSSPERLWRRRDKALRTEALAGTVANNPDDKQAQQLGEWLMADDKNQRENMLVVEDICQRLQADTQTLDVLPPQVLRLRKVQHLRRCIWTSLNKADDVICLHQLQPTAAVAGLPRDLARQFIARHEPFTREWYAGSAGYLSLQQSEFCVSLRSAKISGNVVRLYAGAGIVRGSDPEQEWQEIDNKAAGLRTLLQME”, the “total protein half-life in vivo” value [1] was 4.68 ± 0.47 h, the “total protein half-life in vivo” value [2] was > 8 h and the “total protein half-life in vivo” value [3] was 3.92 ± 0.49 h. The “total protein half-life in vivo” value [4] was 4.47 ± 0.15 h, the “total protein half-life in vivo” value [5] was 3.94 ± 0.32 h and the “total protein half-life in vivo” value [6] was 2.96 ± 0.1 h. For the same sequence, the “total protein half-life in vivo” value [7] was 4.82 ± 0.16 h, the “total protein half-life in vivo” value [8] was 10.2 ± 0.62 h and the “total protein half-life in vivo” value [9] was 3.92 ± 0.21 h. The “total protein half-life in vivo” value [10] was 6.68 ± 0.27 h, the “total protein half-life in vivo” value [11] was 5.06 ± 0.77 h and the “total protein half-life in vivo” value [12] was 11.1 ± 0.5 h.
In the case of “MQSVDVAIVGGGMVGLAVACGLQGSGLRVAVLEQRVQEPLAANAPPQLRVSAINAASEKLLTRLGVWQDILSRRASCYHGMEVWDKDSFGHISFDDQSMGYSHLGHIVENSVIHYALWNKAHQSSDITLLAPAELQQVAWGENETFLTLKDGSMLTARLVIGADGANSWLRNKADIPLTFWDYQHHALVATIRTEEPHDAVARQVFHGEGILAFLPLSDPHLCSIVWSLSPEEAQRMQQASEDEFNRALNIAFDNRLGLCKVESARQVFPLTGRYARQFASHRLALVGDAAHTIHPLAGQGVNLGFMDAAELIAELKRLHRQGKDIGQYIYLRRYERSRKHSAALMLAGMQGFRDLFSGTNPAKKLLRDIGLKLADTLPGVKPQLIRQAMGLNDLPEWLR”, the “total protein half-life in vivo” value [1] is reported as 5.67 ± 0.7 h, the “total protein half-life in vivo” value [2] is reported as 5.28 ± 0.23 h and the “total protein half-life in vivo” value [3] is reported as 4.33 ± 0.36 h. The “total protein half-life in vivo” value [4] was 4.06 ± 0.068 h, the “total protein half-life in vivo” value [5] was 4.06 ± 0.21 h and the “total protein half-life in vivo” value [6] was 2.864 ± 0.025 h. For the same sequence, the “total protein half-life in vivo” value [7] was 5.52 ± 0.85 h, the “total protein half-life in vivo” value [8] was 7.26 ± 0.26 h and the “total protein half-life in vivo” value [9] was 4.1 ± 0.084 h. The “total protein half-life in vivo” value [10] was 7.19 ± 0.06 h, the “total protein half-life in vivo” value [11] was 3.16 ± 0.12 h and the “total protein half-life in vivo” value [12] was 5.3 ± 0.84 h.
With “MQTEQQRAVTRLCIQCGLFLLQHGAESALVDELSSRLGRALGMDSVESSISSNAIVLTTIKDGQCLTSTRKNHDRGINMHVVTEVQHIVILAEHHLLDYKGVEKRFSQIQPLRYPRWLVALMVGLSCACFCKLNNGGWDGAVITFFASTTAMYIRQLLAQRHLHPQINFCLTAFAATTISGLLLQLPTFSNTPTIAMAASVLLLVPGFPLINAVADMFKGHINTGLARWAIASLLTLATCVGVVMALTIWGLRGWV [P0ADD5]” the “total protein half-life in vivo” value [8] was 15.1 h and the “total protein half-life in vivo” value [11] was 6.86 h.
In the case of “MQTIIRVEKLAKTFNQHQALHAVDLNIHHGEMVALLGPSGSGKSTLLRHLSGLITGDKSVGSHIELLGRTVQREGRLARDIRKSRAHTGYIFQQFNLVNRLSVLENVLIGALGSTPFWRTCFSWFTGEQKQRALQALTRVGMVHFAHQRVSTLSGGQQQRVAIARALMQQAKVILADEPIASLDPESARIVMDTLRDINQNDGITVVVTLHQVDYALRYCERIVALRQGHVFYDGSSQQFDNERFDHLYRSINRVEENAKAA”, the “total protein half-life in vivo” value [11] is reported as 0.231 ± 0.32 h and the “total protein half-life in vivo” value [12] is reported as 0.931 ± 0.95 h.
For “MQTKKNEIWVGIFLLAALLAALFVCLKAANVTSIRTEPTYTLYATFDNIGGLKARSPVSIGGVVVGRVADITLDPKTYLPRVTLEIEQRYNHIPDTSSLSIRTSGLLGEQYLALNVGFEDPELGTAILKDGDTIQDTKSAMVLEDLIGQFLYGSKGDDNKNSGDAPAAAPGNNETTEPVGTTK”, the “total protein half-life in vivo” value [1] was 6.04 ± 0.2 h, the “total protein half-life in vivo” value [2] was 6.2952 ± 0.0017 h and the “total protein half-life in vivo” value [3] was 5.73 ± 1.1 h. For the same sequence, the “total protein half-life in vivo” value [4] was 6.27 ± 0.51 h, the “total protein half-life in vivo” value [5] was 6.07 ± 0.14 h and the “total protein half-life in vivo” value [7] was 5.612 ± 0.038 h. The “total protein half-life in vivo” value [8] was 12.5 ± 1.4 h, the “total protein half-life in vivo” value [9] was 6.08 ± 0.09 h and the “total protein half-life in vivo” value [10] was 13.6 ± 1.8 h. For the same sequence, the “total protein half-life in vivo” value [11] was 5.72 ± 0.45 h and the “total protein half-life in vivo” value [12] was 13.7 ± 0.79 h.
With “MQTPHILIVEDELVTRNTLKSIFEAEGYDVFEATDGAEMHQILSEYDINLVIMDINLPGKNGLLLARELREQANVALMFLTGRDNEVDKILGLEIGADDYITKPFNPRELTIRARNLLSRTMNLGTVSEERRSVESYKFNGWELDINSRSLIGPDGEQYKLPRSEFRAMLHFCENPGKIQSRAELLKKMTGRELKPHDRTVDVTIRRIRKHFESTPDTPEIIATIHGEGYRFCGDLED [P0A9Q1]” the “total protein half-life in vivo” value [1] was 5.53 ± 0.35 h, the “total protein half-life in vivo” value [2] was 5.61 ± 1 h and the “total protein half-life in vivo” value [3] was 4.95 ± 0.086 h. The “total protein half-life in vivo” value [4] was 5.76 ± 0.36 h, the “total protein half-life in vivo” value [5] was 4.87 ± 0.05 h and the “total protein half-life in vivo” value [6] was 2.73 ± 0.069 h. For the same sequence, the “total protein half-life in vivo” value [7] was 5.78 ± 0.19 h, the “total protein half-life in vivo” value [8] was 9.44 ± 1.7 h and the “total protein half-life in vivo” value [9] was 4.76 ± 0.39 h. The “total protein half-life in vivo” value [10] was 8.14 ± 0.24 h, the “total protein half-life in vivo” value [11] was 5.18 ± 0.058 h and the “total protein half-life in vivo” value [12] was 10.3 ± 0.2 h.
In the case of “MQTQKPTLELLTCEGAYRDNPTALFHQLCGDRPATLLLESADIDSKDDLKSLLLVDSALRITALGDTVTIQALSGNGEALLALLDNALPAGVESEQSPNCRVLRFPPVSPLLDEDARLCSLSVFDAFRLLQNLLNVPKEEREAMFFGGLFSYDLVAGFEDLPQLSAENNCPDFCFYLAETLMVIDHQKKSTRIQASLFAPNEEEKQRLTARLNELRQQLTEAAPPLPVVSVPHMRCECNQSDEEFGGVVRLLQKAIRAGEIFQVVPSRRFSLPCPSPLAAYYVLKKSNPSPYMFFMQDNDFTLFGASPESSLKYDATSRQIEIYPIAGTRPRGRRADGSLDRDLDSRIELEMRTDHKELSEHLMLVDLARNDLARICTPGSRYVADLTKVDRYSYVMHLVSRVVGELRHDLDALHAYRACMNMGTLSGAPKVRAMQLIAEAEGRRRGSYGGAVGYFTAHGDLDTCIVIRSALVENGIATVQAGAGVVLDSVPQSEADETRNKARAVLRAIATAHHAQETF”, the “total protein half-life in vivo” value [1] is reported as 4.74 ± 0.93 h, the “total protein half-life in vivo” value [2] is reported as 3.4 ± 0.18 h and the “total protein half-life in vivo” value [3] is reported as 3.1 ± 0.083 h. For the same sequence, the “total protein half-life in vivo” value [4] was 3.6 ± 0.24 h, the “total protein half-life in vivo” value [5] was 3.3 ± 0.17 h and the “total protein half-life in vivo” value [6] was 2.93 ± 0.52 h. The “total protein half-life in vivo” value [7] was 5.7 ± 0.12 h, the “total protein half-life in vivo” value [8] was 9.57 ± 0.22 h and the “total protein half-life in vivo” value [9] was 3.25 ± 0.13 h. For the same sequence, the “total protein half-life in vivo” value [10] was 5.08 ± 0.34 h, the “total protein half-life in vivo” value [11] was 6.71 ± 0.33 h and the “total protein half-life in vivo” value [12] was 10.7 ± 1.7 h.
